In assay [1] the target is T1, BSA (UniProt P02769 25-607). The assay is described as follows: phage ELISA, equivalent amounts of phage, anti-M13-HRP, ABTS, A405 after 30 min (n=3). A general note: ELISA stands for enzyme-linked immunosorbent assay.
Procedure: (§1) Equivalent amounts of phage were evaluated to determine their relative binding affinity to hVEGF₁₆₅. […] Target-bound phage were detected with anti-M13-HRP.
In assay [2] the target is T2, human VEGF165 (human, UniProt P15692-4 27-191).
T2 construct: Bought protein; panning target, amine-coupled to CM5 chips for BIAcore, coated on plates; also called hVEGF165; hVEGF
Kind of assay: bound beta-lactamase activity (nitrocefin, mOD/min) on hVEGF165 coated wells after washing.

For assay [3], the target named is T3, VegF (PeproTech), labeled with biotin (UniProt P15692-4 27-191, limits assumed, biotin label (site not stated)).
T3 construct: Captured on streptavidin coated beads in the BioVeris ECL assay; also called biotinylated VegF
T3 sequence (P15692 other isoform, or with tags, fused parts or gaps limits assumed): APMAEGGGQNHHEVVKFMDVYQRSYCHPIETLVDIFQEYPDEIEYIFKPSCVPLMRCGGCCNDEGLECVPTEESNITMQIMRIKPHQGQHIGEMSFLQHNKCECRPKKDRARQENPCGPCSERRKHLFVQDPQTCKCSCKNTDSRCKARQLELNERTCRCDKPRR
The assay is described as follows: ECL competition assay (BioVeris): biotinylated VegF on streptavidin beads, competitor ECL labeled Anti-VegF antibody.

Assay [4] addresses T1, BSA. The assay is described as follows: phage ELISA, anti-M13-HRP, ABTS, A405.
Procedure: as §1
The target of assay [5] is T2, human VEGF165. Kind of assay: SPR (BIAcore 3000), VEGF165 coupled to CM5, peptide injected, TNF-alpha reference lane; two state reaction model with conformation change; overall KD of the two state fit.
Procedure: (§2) Affinities of the peptides for VEGF were measured using a BIAcore™-3000 surface plasmon resonance system (Biacore). A CM5 sensor chip was conditioned with 50 mM NaOH, 0.1% HCl, 0.1% SDS, and 0.08% H₃PO₄, and activated for covalent coupling of VEGF using N-ethyl-N′-(3-dimethylaminopropyl)-carbodiimide hydrochloride (EDC) and N-hydroxysuccinimide (NHS) according to the supplier's instructions (Biacore). Human VEGF₁₆₅ (Biosource) was diluted to 5 μg/ml in 20 mM sodium acetate, pH 4.8 and injected at a flow rate of 2 μl/min to achieve approximately 1000 to 6000 response units (RU) of coupled protein. TNF-alpha (human TNF-alpha, Biosource, Int., Camarillo, Calif.) was similarly coupled to the CM5 sensor chip to approximately 850 to 3500 RU in the reference lane. A solution of 1 M ethanolamine was injected as a blocking agent. In some experiments, an additional solution of EDC and NHS were injected to improve baseline stability and a solution of 1 M ethanolamine injected as a blocking agent. The reference lane was activated with EDC and NHS and blocked with ethanolamine.
Assay [6] has as its target T2, human VEGF165. The assay is described as follows: SPR (BIAcore 3000), VEGF165 coupled to CM5, peptide injected, TNF-alpha reference lane; two state reaction model with conformation change; first step of the two state fit (kd1).
Procedure: as §2
Assay [7] concerns the target T2, human VEGF165. Kind of assay: SPR (BIAcore 3000), VEGF165 coupled to CM5, peptide injected, TNF-alpha reference lane; two state reaction model with conformation change; first step of the two state fit (ka1). (In general: Surface plasmon resonance follows binding to a sensor surface in real time, without labels.)
Procedure: as §2

Ends that are not written are not given here.

T2 sequence (P15692 other isoform, or with tags, fused parts or gaps limits assumed): as above
T1 sequence (P02769 25-607 limits assumed): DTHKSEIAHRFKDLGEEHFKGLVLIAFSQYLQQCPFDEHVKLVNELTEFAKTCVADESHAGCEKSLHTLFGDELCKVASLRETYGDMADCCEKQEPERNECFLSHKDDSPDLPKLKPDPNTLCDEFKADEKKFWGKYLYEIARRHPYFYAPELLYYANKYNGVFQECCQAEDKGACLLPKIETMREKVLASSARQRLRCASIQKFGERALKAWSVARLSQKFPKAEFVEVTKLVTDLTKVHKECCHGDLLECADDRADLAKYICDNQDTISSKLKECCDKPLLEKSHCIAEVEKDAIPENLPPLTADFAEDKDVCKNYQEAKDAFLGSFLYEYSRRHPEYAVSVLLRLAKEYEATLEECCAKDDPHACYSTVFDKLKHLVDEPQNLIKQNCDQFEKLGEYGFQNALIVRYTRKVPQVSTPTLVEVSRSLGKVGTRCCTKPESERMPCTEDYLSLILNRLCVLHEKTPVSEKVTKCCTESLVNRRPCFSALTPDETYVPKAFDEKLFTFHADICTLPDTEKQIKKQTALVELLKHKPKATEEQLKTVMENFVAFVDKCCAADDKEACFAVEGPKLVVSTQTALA

B1: SEQ ID NO 1 (peptide)
peptide: YNLYGWT
notes: Clone of the PhD C7C library (NEB): the 7-mer stands between two cysteines on M13 phage; tested as whole phage; also called YNLYGWT
Consider B1, for which, in the assay with BSA [1], the binding result is on record as “no binding”.
Same read-out and setting: the same measure for TLWPSYW (tested as whole phage) [SEQ ID NO 7]: “no binding”; for HLAPSAV (tested as whole phage) [SEQ ID NO 13]: “no binding”.

B2: BLA (enzyme)
chain: TPVSEKQLAEVVANTITPLMKAQSVPGMAVAVIYQGKPHYYTFGKADIAANKPVTPQTLFELGSISKTFTGVLGGDAIARGEISLDDAVTRYWPQLTGKQWQGIRMLDLATYTAGGLPLQVPDEVTDNASLLRFYQNWQPQWKPGTTRLYANASIGLFGALAVKPSGMPYEQAMTTRVLKPLKLDHTWINVPKAEEAHYAWGYRDGKAVRVSPGMLDAQAYGVKTNVQDMANWVMANMAPENVADASLKQGIALAQSRYWRIGSMYQGLGWEMLNWPVEANTVVEGSDSKVALAPLPVAEVNPPAPPVKASWVHKTGSTGGFGSYVAFIPEKQIGIVMLANTSYPNPARVEAAYHILEALQHHHHHH
notes: also called pCB04; pCB04 (WT)
In the case of B2, in the assay with human VEGF165 [2], the binding result is listed as “no binding (tested: about 40 uM)”.

B3: 2BBIck81 (designed binder)
chain: DDESSKPCCDQCACTKSNPPQCRCSDMRLNSCHSACKSCACYNLYGWTCFCVDITDFCYEPCKPSEDDKEN
notes: also called free 2BBIck81; 2BBlck81
Regarding B3, in assay [3], the “IC50 (read off the curve)” value was approximately 3000 nM.
SLWPAFW (tested as whole phage) [SEQ ID NO 4]: the binding result in the assay with BSA [1] is given as “no binding”.
The same measure, in the same setting: the same measure for NLWPHFW (tested as whole phage) [SEQ ID NO 3]: “no binding”; for TLWPTFW (tested as whole phage) [SEQ ID NO 2]: “no binding”.
On the same count and under the same terms, the same measure for APWNSHI (tested as whole phage) [SEQ ID NO 5]: “no binding”.
Regarding APWNLHI (tested as whole phage) [SEQ ID NO 6], the binding result with BSA [4] is on record as “no binding”.

B4: biotinylated peptide CK37281 (peptide)
peptide: ACYNLYGWTC
modifications: cysteine pairing not given here; also: biotinylated (site not given here)
notes: Synthetic peptide (FMOC chemistry, SynPep)
In general, Kd refers to a measure of binding affinity in units of concentration. A higher Kd goes with weaker binding. What is called koff is the first-order rate constant of dissociation. A high value points to a short-lived complex. The term kon denotes the rate constant with which the complex forms. A higher kon goes with fast association. Consider B4, for which binding with human VEGF165 [5] was characterised by a dissociation constant (Kd) of 1920 nM. This molecule also came in with an off-rate constant (koff) with human VEGF165 [6] of 0.0122 s⁻¹. In the assay with human VEGF165 [7], this molecule came in with a kon of 2840 M⁻¹ s⁻¹.

The values are drawn from patent publication US20120014885A1 (DANISCO US, published 2012).
